Reference: article PMC4354037

Target: T1, BSU Pol I (BSU polymerase) (Bacillus subtilis) (UniProt O34996)
T1 sequence: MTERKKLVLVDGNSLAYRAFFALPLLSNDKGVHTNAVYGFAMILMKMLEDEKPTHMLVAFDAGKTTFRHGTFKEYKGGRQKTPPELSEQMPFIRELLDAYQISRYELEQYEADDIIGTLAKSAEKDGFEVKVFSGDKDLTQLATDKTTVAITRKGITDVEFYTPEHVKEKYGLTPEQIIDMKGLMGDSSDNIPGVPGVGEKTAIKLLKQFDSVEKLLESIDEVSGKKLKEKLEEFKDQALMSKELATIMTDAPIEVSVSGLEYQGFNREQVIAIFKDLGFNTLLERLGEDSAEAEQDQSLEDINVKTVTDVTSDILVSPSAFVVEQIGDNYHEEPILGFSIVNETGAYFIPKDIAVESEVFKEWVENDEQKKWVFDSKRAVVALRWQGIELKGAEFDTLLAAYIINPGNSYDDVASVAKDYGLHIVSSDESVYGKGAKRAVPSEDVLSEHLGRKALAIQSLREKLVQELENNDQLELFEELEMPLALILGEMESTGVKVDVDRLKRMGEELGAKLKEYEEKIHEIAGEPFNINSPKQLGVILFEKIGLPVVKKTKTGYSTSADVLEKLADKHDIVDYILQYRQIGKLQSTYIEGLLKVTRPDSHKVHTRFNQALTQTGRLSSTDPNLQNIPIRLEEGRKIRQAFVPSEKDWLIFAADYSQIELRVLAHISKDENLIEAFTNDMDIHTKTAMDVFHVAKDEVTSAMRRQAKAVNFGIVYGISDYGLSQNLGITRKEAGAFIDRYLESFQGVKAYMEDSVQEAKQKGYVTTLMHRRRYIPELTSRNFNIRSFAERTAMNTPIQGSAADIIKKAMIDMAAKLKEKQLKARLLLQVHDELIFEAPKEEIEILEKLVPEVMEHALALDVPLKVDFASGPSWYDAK
Experiment: stopped-flow fluorescence quenching
Conditions: 375 mM NaCl, 10 mM MgSO4, fluorescein-modified thymidine in primer, five bases from the incorporation site, Stopped flow: 20 mM ACES pH 7.4, 62.5-325 mM NaCl (Methods; 375 mM in Results), 10 mM MgSO4, 1 uM acetylated BSA, 0.02% Tween-20, 1 mM TCEP, 600 nM enzyme …

In the case of “GCTTGCACAGGGCCTCGAC / CGTTAGTAAGGTCGAGGCCCTGTGCAAGC [stopped-flow primer/template duplex]”, the binding signal (fold signal over mismatch) (correct nucleotide dCTP 100 uM) was 3.5 and the binding signal (reference signal (correct is 3.5-fold)) (mismatch nucleotide dATP) was 1.
